From patent US20200048342A1 (INSERM, published 2020)

Tests used:
[1] = biological target: T1, Biotinylated NOTCH3 657-848 (human, UniProt Q9UM47 657-848, biotinylated (site not stated)); experiment: Octet RED (BLI), biotinylated NOTCH3 657-848 on streptavidin tips, 5E1 at 333 nM to 3.3 nM; human NOTCH3 (657-848), Octet
T1 construct: also called human NOTCH3 (Octet analysis)
T1 sequence: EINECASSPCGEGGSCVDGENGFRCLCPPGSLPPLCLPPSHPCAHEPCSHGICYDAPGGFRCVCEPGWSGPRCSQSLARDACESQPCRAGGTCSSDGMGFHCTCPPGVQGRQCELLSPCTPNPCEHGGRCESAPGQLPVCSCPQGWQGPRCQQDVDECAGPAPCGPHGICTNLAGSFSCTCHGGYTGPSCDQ
Method: (§1) FIGS. 1A-1B show 5E1 binding to human NOTCH3 using OCTET analysis. (A) Kinetic analysis was performed using the Octet RED technology from ForteBio according to the manufactures instruction. Biotinylated NOTCH3 657-848 was immobilized on streptavidin tips at a level of approximately 3 RU each. (B) Subsequent association and dissociation of 5E1 antibody was analyzed at concentrations in the range from 333 nM to 3.3 nM. Data analysis was subsequently done using the ForteBio Data Analysis 7.0 software (Example 3).
as §1, with “Kinetic” for “FIGS. 1A-1B show 5E1 binding to human NOTCH3 using OCTET analysis. (A) Kinetic”, “each.” for “each. (B)”, “3,3” for “3.3”, “(FIG. 1).” for “(Example 3).”

[2] = biological target: vascular Notch3ECD deposits of TgPAC-Notch3R169C mice; experiment: in vivo target engagement, co-immunolabelling with Alexa 488-conjugated 5E1 for total Notch3ECD deposits, 2 months old TgPAC-Notch3R169C mice

B1: 5E1 monoclonal antibody (isotype IgG1) (antibody, V domains shown)
VH: EIQLQQSGTVLARPGASVKMSCKASGYTFTSYWMHWVKQRPGQGLEWIGAIYPGNGDTSYNRKFNGKAKLTAVTSTSTAYMEFSSLTNEDSAVYFCTRDYGSSYDYVMDYWGQGTSVTVSS
VL: DIQMTQSPSSLSASLGERVSLTCRASQDIGSSLNWLQQEPDGTIKRLIYATSSLDSGVPKRFSGSRSGSDYSLTISRLESEDFVDYYCLQYISSPLTFGAGTKLELK
notes: Murine monoclonal IgG1 from a hybridoma; also called 5E1 antibody; 5E1 anti-Notch3
Kd [1]: 55 nM | percentage of target engagement [2]: 100%
